Laboratory results published in IntAct's records for PubMed 12571249.

B1: Syndecan-4 (Rattus norvegicus (Rat)), P34901 (parent)
chain: MAPVCLFAPLLLLLLGGFPVAPGESIRETEVIDPQDLLEGRYFSGALPDDEDAGGLEQDSDFELSGSGDLDDTEEPRTFPEVISPLVPLDNHIPENAQPGIRVPSEPKELEENEVIPKRVPSDVGDDDVSNKVSMSSTSQGSNIFERTEVLAALIVGGVVGILFAVFLILLLVYRMKKKDEGSYDLGKKPIYKKAPTNEFYA

Variants of: B1
Conditions: with kpca_human PRKCA

Row | effect of a mutation on the interaction | Variant
1 | disrupting interaction | Y192F
